From patent US20230049752A1 (University of California, published 2023)

T1: mouse Claudin-6 (CLDN6) (mouse, UniProt Q9Z262 1-219)
T1 construct: whole, on cells; GFP fusion on engineered HEK293T cells; also called Mouse CLDN6; murine CLDN6
T1 sequence (looked up): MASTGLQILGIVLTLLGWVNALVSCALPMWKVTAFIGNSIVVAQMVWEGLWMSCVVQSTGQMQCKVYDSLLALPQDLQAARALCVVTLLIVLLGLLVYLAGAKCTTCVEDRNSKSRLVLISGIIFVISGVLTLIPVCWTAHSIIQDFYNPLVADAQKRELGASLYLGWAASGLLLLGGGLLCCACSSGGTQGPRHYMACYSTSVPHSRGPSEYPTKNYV


What was measured:
[1] = target: human Claudin-6 (CLDN6) (human) (UniProt P56747); test: FACS, 1.5 ug Ab, ARK2 cells (2nd Ab only 1351.21)
[2] = target: human Claudin-6 (CLDN6) (human) (UniProt P56747); test: FACS, 0.3 ug Ab, ARK2 cells (2nd Ab only 1351.21)
[3] = target: CLDN3/4 (endogenous on LS513 or MCF7 cells); test: FACS titration of labelled mAb on LS513 cells (endogenous CLDN3/4+)
[4] = target: T1, mouse Claudin-6 (CLDN6); test: FACS, 293T clone expressing mouse CLDN6, dose not stated (2nd Ab only 1061.72)
Experimental: Two doses (1.5 μg or 0.3 μg) of the humanized antibodies were tested for binding to either human CLDN6 or murine CLDN6 which proteins were expressed by engineered 293T clones.

[5] = target: human Claudin-6 (CLDN6) (human) (UniProt P56747); test: FACS titration of labelled mAb on HEK293T-CLDN6-mGFP cells
[6] = target: human Claudin-6 (CLDN6) (human) (UniProt P56747); test: FACS, 1.5 ug Ab, OVCA429 cells (2nd Ab only 885.77)
[7] = target: human Claudin-6 (CLDN6) (human) (UniProt P56747); test: FACS, 1.5 ug Ab, 293T clone expressing human CLDN6 (2nd Ab only 768.07)
[8] = target: CLDN3/4 (endogenous on LS513 or MCF7 cells); test: FACS titration of labelled mAb on MCF7 cells (endogenous CLDN3/4+)
[9] = target: human Claudin-6 (CLDN6) (human) (UniProt P56747); test: FACS, 0.3 ug Ab, 293T clone expressing human CLDN6 (2nd Ab only 768.07)
[10] = target: human Claudin-6 (CLDN6) (human) (UniProt P56747); test: FACS titration of labelled mAb on ARK2 cells (endogenous CLDN6+)
[11] = target: human Claudin-6 (CLDN6) (human) (UniProt P56747); test: FACS titration of labelled mAb on OVCA429 cells (endogenous CLDN6+)
[12] = target: T1, mouse Claudin-6 (CLDN6); test: FACS titration of labelled mAb on HEK293T mouse CLDN6-mGFP cells
Experimental: CLDN6 antibodies were tested from 0.32 nM to 1000 nM (serial dilution 1:5, 6 points) in a 50 μl volume with 150,000 cells system.
CLDN6-expressing cells were used in FACS assays to determine the CLDN6 antibody's ability to bind to CLDN6 on the surface of cells and to cross-react with other CLDN family members. HEK293 T cells engineered to express human CLDN6 fused to GFP, mouse CLDN6 fused to GFP, CLDN9-GFP, CLDN4-GFP, or CLDN3-GFP, or GFP alone (without CLDN6) were used as artificial models of CLDN6 expression.
For each type of cell tested and for each mAb, cells were detached from the surface of the culture flasks by EDTA (instead of trypsin) in order to protect the cell surface proteins. The detached cells were then incubated with Alexa Fluor®-labeled CLDN6 mAbs for 30 min in the dark on ice at a pre-determined concentration. […] After washing, the cells were read by a BD Accuri™ Flow Cytometer C6 to detect antibody-antigen protein binding in channel FL4H. Each antibody was tested at varied concentrations to establish a dose-fluorescence curve. […] Cross-reactivity data were obtained using a similar methodology, but with cells having a different expression profile for CLDN6, CLDN3, CLDN4 and CLDN9.

FACS fluorescence [1]	FACS fluorescence [2]	EC50 [3] [µM]	FACS fluorescence [4]	EC50 [5] [µM]	FACS fluorescence [6]	FACS fluorescence [7]	EC50 [8] [µM]	FACS fluorescence [9]	EC50 [10] [µM]	EC50 [11] [µM]	EC50 [12] [µM]	Binder
7740	2820	5	77600	5	29900	227000	5	120000	5	5		AB1-6 (antibody, V domains shown, humanized) VH: QVQLVQSGAEVKKPGASVKMSCKASGYTFTTYTMHWVRQAPGQGLEWIGFINPSSGYTDYAQKFQGRVTLTADTSTSTVYMELSSLRSEDTAVYYCANGDYYVAYWGQGTLVTVSS VL: DIQMTQSPSSLSASVGDRVTITCTASSSVSSTYFHWYQQKPGKAPKLLIYSTSNLASGVPSRFSGSGSGTDYTLTISSLQPEDFATYYCHQYHRSPLTFGQGTKLEIK
1940	1400		7160		2690	2560		1290				AB11-2 (antibody, V domains shown, humanized) VH: EVQLVESGGGLVQPGGSLRLSCAASGFTFSSFGMHWVRQAPGKGLEWVAYISSDSRTIYYADSVKGRFTISRDNAKNSLYLQMNSLRAEDTAVYYCARDYGRTYEAYWGQGTLVTVSS VL: DIVMTQSPDSLAVSLGERATINCRASKSVSTSGYSYIHWYQQKPGQPPKLLIYLASNLESGVPDRFSGSGSGTDFTLTISSLQAEDVAVYYCQHSRELPLTFGQGTKLEIK
1540	1320		5520		2200	2360		1010				AB11-3 (antibody, V domains shown, humanized) VH: EVQLVESGGGLVQPGGSLRLSCAASGFTFSSFGMHWVRQAPGKGLEWVAYISSDSRTIYYADSVKGRFTISRDNAKNSLYLQMNSLRAEDTAVYYCARDYGRTYEAYWGQGTLVTVSS VL: DIVLTQSPDSLAVSLGERATINCRASKSVSTSGYSYIHWYQQKPGQPPKLLIYLASNLESGVPDRFSGSGSGTDFTLTISSVQAEDVAVYYCQHSRELPLTFGQGTKLELK
		5		0.182			5		1.36	0.912	≥ 5	AB2 (antibody, V domains shown, full-length IgG (ExpiCHO)) VH: EVKLEESGGGLVQPGGSMKLSCVASGFTFSDYWMNWVRQSPEKGLEWVAQIRLKSDNYATHYAESVKGRFTISRDDSKRSVYLQMNNLRAEDTGTYYCNDGPPSGCWGQGTTLIVSS VL: DIQMTQSPASLSASVGETVTITCRISENIYSYLAWYQQKQGKSPQLLVYNAKILVEGVPSRFSGSGSGTQFSLKINSLQPEDFGNYYCQHHYTVPWTFGGGTKLEIK
1260	1320		5490		2440	3490		1670				AB11-chim (antibody, V domains shown) VH: DVQLVESGGGLVQPRGSRKLSCAASGFTFSSFGMHWVRQAPEKGLEWVAYISSDSRTIYYADTVKGRFTISRDNPTNTLFLQMTSLRSEDTAMYYCARDYGRTYEAYWGQGTLVTVSA VL: DIVLTQSPASLAVSLGQRATISCRASKSVSTSGYSYIHWYQQKPGQPPKLLIYLASNLESGVPARFSGSGSGTDFTLNIHPVEEEDAATYYCQHSRELPLTFGAGTKLELK
1550	1120		1710		1110	34300		15300				AB9-4 (antibody, V domains shown, humanized) VH: QVQLVQSGAEVKKPGASVKMSCKASGYRFTDYNMHWVRQAPGQGLEWIGYINPNNGGTNYAQKFQGRATLTVDTSTSTAYMELSSLRSEDTAVYYCARDYLYFFDCWGQGTLLTVSS VL: DIQMTQSPSSLSASVGDRVTITCRASQTIGTWLAWYQQKPGKAPKLLIYAAASLADGVPSRFSGSGSGTDFTFTISSLQPEDFVTYYCQQLYSIPRTFGQGTKLEIK
		1.04		2.67			5		1.14	1.17		AB9 (antibody, V domains shown) VH: EVQLQQSGPELVKPGASVKMSCKASGYRFTDYNMHWVKQSHGKSLEWIGYINPNNGGTNYNQNFKGKATLTVNKSSSTAYMELRSLTSEDSAAYYCARDYLYFFDCWGQGTTLTVSS VL: DIQMTQSPASQSASLGESVTITCLASQTIGTWLAWYQQKPGKSPQLLIYAAASLADGVPSRFSGSGSGTRFSFKISSLQAEDFVSYYCQQLYSIPRTFGGGTKLEIK
		1.59		5			5		1.15	2.29		AB13 (antibody, V domains shown) VH: QVQLQQSGAELVRPGTSVKVSCKASGYAFSNYLIEWVKQRPGQGLEWIGVINPGSGGTNYNEKFKGKATMTADKSSSTAYMHLSNLTSEDSVVYFCARSYFGRSYPYTMDYWGQGTSVTVSS VL: EIVLTQSPTTMAASPGEKITITCSASSSISSNYLHWYQQKPGFSPKLLIYRTSNLASGVPARFSGSGSGTSYSLTIGTMEAEDVATYYCQQGSSIPLTFGAGTKLELK
		1.16		5			0.546		1.3	1.66		AB14 (antibody, V domains shown) VH: QVQLQQSGPELVRPGVSVKISCKGSGYTFTDYAMHWVKQSHAKSLEWIGVISTYSGNTNYNQKFQDKATMTVDKSSSTAYMALARLTSDDSAIYYCARRGDYSLYAMDYWGQGTSVTVSS VL: DIVLTQSPASLAVSLGQRATISCKASQSVDYDGDNYVNWYQQKVGQPPKLLISAASNLESGIPARFSGSGSGTDFTLNIHPVEEEDAATYYCQQSNEDPFTFGSGTKLEIK
		5		2.65			5		5	5		AB17 (antibody, V domains shown) VH: QVQLQQSGAELAKPGASVKMSCKASGYTFTGYWMHWVKQRPGQGLEWLGYINPSTGYTESNQKFKDKATLTADKSSTTAYMQLRSLTPEDSAVYYCAREGITTVLVDYWGQGTTLTVSS VL: QIVLTQSPAIMSASLGERVTMTCTASSSVSSSYLHWYQQKPGSSPKLWIYSTSNLASGVPARFSGSGSGTSYSLTISSMEAEDAATYYCHQYHRSPPTFGAGTKLELK
		5		5			5		1.35	2.44		AB18 (antibody, V domains shown) VH: QVQLKQSGPELEKPGASVKISCKASGYSFTGYNMNWVKQSNGKSLEWIGNIDPYYGGSTYNQKFTGKATLTVDKSSSTAYMQLKSLTSEDSAVYYCARERSGYVFSAMDYWGQGTSVTVSS VL: NIMMTQSPSSLAVSAGEKVTMSCKSSQSVLFSSNQKNYLAWYQQKPGQSPRLLIYWASTRESGVPDRFTGSGSGTDFTLTISNVQAEDLAVYYCHQYLSSRTFGAGTKLELK
		5		5			5		5	5		AB19 (antibody, V domains shown) VH: EVQLQQSGPELVKPGGSMKISCKASGYSFTGYTMNWVKRSHGKNLEWIGLINPYNGVTTYNQNFKGKATLAVDKSSSTAYMELLGLTSEDSAVYYCTRDPLYYGYRDSTMDYWGQGTSVTVSS VL: NIMMTQSPSSLAVSAGEKVTMSCKSSQSVLFSSNQKNYLAWYQQKPGQSPRLLIYWASTRESGVPDRFTGSGSGTDFTLTISNVQAEDLAVYYCHQYLSSRTFGAGTKLELK
